The Human Domainome abundance scans (Beltran et al. 2025)

B1: Chromodomain-helicase-DNA-binding protein 4, residues 623 to 675; numbered along this chain, Q14839 (parent)
chain: MIHRILNHSVDKKGHVHYLIKWRDLPYDQASWESEDVEIQDYDLFKQSYWNHR
B2: PDZ and LIM domain protein 2, residues 284 to 339; numbered along this chain, Q96JY6 (parent)
chain: HTCEKCSTSIANQAVRIQEGRYRHPGCYTCADCGLNLKMRGHFWVGDELYCEKHAR

Variants of: B1
Assay: abundance fitness (aPCA) (normalised: wild type 0, dead -1); higher = more abundant; growth selection in yeast, the domain comes from the species named
Settings: Homo sapiens

Abundance fitness of substitutions, site by site:
S48: A 0.07 | C -0.083 | D 0.043 | E 0.067 | F -0.236 | G -0.206 | H 0.119 | K 0.043 | L -0.01 | M 0.016 | P -0.628 | Q -0.053 | R 0.14 | T -0.124 | V -0.011 | W -0.412 | Y 0.093
Y49: A -0.783 | C -1.01 | F -0.7 | G -0.811 | I -1.13 | K -0.658 | L -0.751 | M -0.747 | P -0.696 | Q -0.997 | R -1 | S -0.953 | T -0.916 | V -0.877 | W -0.951
W50: A -0.808 | C -0.793 | D -1.23 | E -0.879 | F -0.861 | G -0.813 | H -0.779 | I -0.813 | K -0.511 | L -0.811 | N -0.766 | P -0.824 | Q -0.959 | R -0.725 | S -0.653 | T -0.733 | V -0.783 | Y -0.554
N51: A 0.014 | C -0.428 | D 0.01 | F -0.11 | H -0.23 | I -0.564 | K -0.167 | L -0.194 | M 0.01 | Q 0.004 | R 0.105 | S -0.079 | T 0.037 | V -0.341 | W -0.45 | Y -0.267
H52: C -0.103 | D -0.177 | E 0.139 | G 0.022 | I -0.29 | K 0.088 | L -0.017 | M -0.18 | N 0.023 | P -0.363 | R 0.058 | S 0.106 | T 0.185 | V -0.016 | Y -0.254
R53: C -0.086 | D -0.161 | E -0.189 | H -0.185 | K -0.22 | L -0.104 | N -0.313 | P -0.481 | Q 0.025 | S -0.141 | T -0.221 | V -0.09 | W -0.044 | Y 0.011

Variants of: B2
Assay: as above
Settings: Homo sapiens

Abundance fitness: each site, then its substitutions
H1: A -0.24 | D -0.317 | G -0.247 | M 0.268 | Q -0.669 | R -0.222
T2: A -0.578 | C -0.323 | D -0.305 | E -0.597 | G -0.899 | H 0.144 | I 0.208 | K 0.003 | L -0.834 | M -0.51 | N 0.177 | P -0.66 | Q -0.339 | R -0.389 | S -0.559 | V -0.685 | Y -0.31
C3: A -1.1 | D -1.02 | E -0.986 | F -0.483 | G -1.17 | H -0.399 | I -0.471 | K -0.45 | L -0.978 | M -0.856 | P -0.968 | Q -0.82 | R -0.847 | S -0.693 | T -0.586 | V -0.983 | W -1.05 | Y -0.436
E4: A -0.245 | C 0.033 | D -0.063 | F 0.075 | G -0.028 | H 0.069 | I -0.331 | K -0.362 | L -0.473 | M 0.093 | N 0.14 | P -0.592 | Q -0.16 | R -0.624 | S 0.014 | W -0.276 | Y 0.056
K5: A 0.157 | C -0.068 | D 0.181 | E 0.038 | F -0.467 | G -0.036 | I 0.463 | L 0.049 | M -0.05 | N 0.269 | P -0.267 | Q 0.165 | R 0.261 | S -0.108
